# Values joined by “and” are separate entries in the source; they are usually repeats but may differ in a detail not shown here. Equal values may be shown once.
# What was measured:
# [1] = target: Rtt109 D288N (with Vps75) (Saccharomyces cerevisiae, UniProt P53853+Q07794, D288N); assay type: biochemical, yeast (Saccharomyces cerevisiae)
# Esa1 = details: E338Q vs wildtype Esa1, ref [35]; cited from earlier work
# [2] = target: T1, Rtt109 D287A/D288A (with Vps75) (Saccharomyces cerevisiae, UniProt P53853+Q07794, D287A/D288A); assay type: biochemical, yeast (Saccharomyces cerevisiae); details: H3 peptide saturation
# [3] = target: T1, Rtt109 D287A/D288A (with Vps75); assay type: biochemical, yeast (Saccharomyces cerevisiae)
# [4] = target: Rtt109 D287N (with Vps75) (Saccharomyces cerevisiae, UniProt P53853+Q07794, D287N); assay type: biochemical, yeast (Saccharomyces cerevisiae); details: H3 peptide saturation
# Rtt109 D287N (with Vps75), sequence (P53853 whole entry, one chain of several): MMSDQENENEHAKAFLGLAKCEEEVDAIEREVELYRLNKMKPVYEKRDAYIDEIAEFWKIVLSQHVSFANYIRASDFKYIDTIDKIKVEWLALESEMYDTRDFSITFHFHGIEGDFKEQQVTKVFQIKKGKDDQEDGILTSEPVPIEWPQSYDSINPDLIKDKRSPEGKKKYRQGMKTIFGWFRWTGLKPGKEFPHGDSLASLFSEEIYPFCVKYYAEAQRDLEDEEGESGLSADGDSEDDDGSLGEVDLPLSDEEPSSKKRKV
# T1 sequence (P53853 whole entry, one chain of several): as above
# Rtt109 D288N (with Vps75), sequence (P53853 whole entry, one chain of several): as above
molecule,measurement,setting,value
"D288N: single point mutant of Rtt109 (protein, UniProt Q07794 1-436, looked up, variant D288N) Histone acetyltransferase …: MSLNDFLSSVLPVSEQFEYLSLQSIPLETHAVVTPNKDDKRVPKSTIKTQHFFSLFHQGKVFFSLEVYVYVTLWDEADAERLIFVSKADTNGYCNTRVSVRDITKIILEFILSIDPNYYLQKVKPAIRSYKKISPELISAASTPARTLRILARRLKQSGSTVLKEIESPRFQQDLYLSFTCPREILTKICLFTRPASQYLFPDSSKNSKKHILNGEELMKWWGFILDRLLIECFQNDTQAKLRIPGEDPARVRSYLRGMKYPLWQVGDIFTSKENSLAVYNIPLFPDNPKARFIHQLAEEDRLLKVSLSSFWIELQERQEFKLSVTSSVMGISGYSLATPSLFPSSADVIVPKSRKQFRAIKKYITGEEYDTEEGAIEAFTNIRDFLLLRMATNLQSLTGKREHRERNQPVPASNINTLAITMLKPRKKAKALPKT",decrease in kcat/Km for AcCoA,[1]; AcCoA,1000 fold
same,decrease of kcat/Km for AcCoA versus wildtype,[1]; AcCoA,~3 orders of magnitude
same,increase in Km for AcCoA versus wildtype,[1]; AcCoA saturation,~16 fold
same,decrease of kcat versus wildtype,[1]; H3 peptide saturation,~50 fold and 50-100 fold
"E338Q: Esa1 with mutation of the general base catalyst Glu-338 (protein, UniProt Q08649 1-445, looked up, variant E338Q) Histone acetyltransferase ESA1: MSHDGKEEPGIAKKINSVDDIIIKCQCWVQKNDEERLAEILSINTRKAPPKFYVHYVNYNKRLDEWITTDRINLDKEVLYPKLKATDEDNKKQKKKKATNTSETPQDSLQDGVDGFSRENTDVMDLDNLNVQGIKDENISHEDEIKKLRTSGSMTQNPHEVARVRNLNRIIMGKYEIEPWYFSPYPIELTDEDFIYIDDFTLQYFGSKKQYERYRKKCTLRHPPGNEIYRDDYVSFFEIDGRKQRTWCRNLCLLSKLFLDHKTLYYDVDPFLFYCMTRRDELGHHLVGYFSKEKESADGYNVACILTLPQYQRMGYGKLLIEFSYELSKKENKVGSPQKPLSDLGLLSYRAYWSDTLITLLVEHQKEITIDEISSMTSMTTTDILHTAKTLNILRYYKGQHIIFLNEDILDRYNRLKAKKRRTIDPNRLIWKPPVFTASQLRFAW",upward shift of pKa of ionizable group,Esa1,1.4 pH-units
"D287A/D288A: double point mutant of Rtt109 (protein, UniProt Q07794 1-436, looked up, variant D287A D288A) Histone acetyltransferase …: MSLNDFLSSVLPVSEQFEYLSLQSIPLETHAVVTPNKDDKRVPKSTIKTQHFFSLFHQGKVFFSLEVYVYVTLWDEADAERLIFVSKADTNGYCNTRVSVRDITKIILEFILSIDPNYYLQKVKPAIRSYKKISPELISAASTPARTLRILARRLKQSGSTVLKEIESPRFQQDLYLSFTCPREILTKICLFTRPASQYLFPDSSKNSKKHILNGEELMKWWGFILDRLLIECFQNDTQAKLRIPGEDPARVRSYLRGMKYPLWQVGDIFTSKENSLAVYNIPLFPAAPKARFIHQLAEEDRLLKVSLSSFWIELQERQEFKLSVTSSVMGISGYSLATPSLFPSSADVIVPKSRKQFRAIKKYITGEEYDTEEGAIEAFTNIRDFLLLRMATNLQSLTGKREHRERNQPVPASNINTLAITMLKPRKKAKALPKT",decrease of kcat versus wildtype,[2],~100 fold and 50-100 fold
same,downward shift of apparent pKa versus wildtype,[3]; D287A/D288A kcat pH profile,~1 pH unit
same,pKa from kcat pH profile,"[3]; D287A/D288A, ATE buffer, pH 7-9, 25 °C, 400 μM H3 peptide, 60 μM AcCoA, twice in duplicate, Eq. 11",7.5 ± 0.1
"D287N: single point mutant of Rtt109 (protein, UniProt Q07794 1-436, looked up, variant D287N) Histone acetyltransferase …: MSLNDFLSSVLPVSEQFEYLSLQSIPLETHAVVTPNKDDKRVPKSTIKTQHFFSLFHQGKVFFSLEVYVYVTLWDEADAERLIFVSKADTNGYCNTRVSVRDITKIILEFILSIDPNYYLQKVKPAIRSYKKISPELISAASTPARTLRILARRLKQSGSTVLKEIESPRFQQDLYLSFTCPREILTKICLFTRPASQYLFPDSSKNSKKHILNGEELMKWWGFILDRLLIECFQNDTQAKLRIPGEDPARVRSYLRGMKYPLWQVGDIFTSKENSLAVYNIPLFPNDPKARFIHQLAEEDRLLKVSLSSFWIELQERQEFKLSVTSSVMGISGYSLATPSLFPSSADVIVPKSRKQFRAIKKYITGEEYDTEEGAIEAFTNIRDFLLLRMATNLQSLTGKREHRERNQPVPASNINTLAITMLKPRKKAKALPKT",decrease in activity (kcat) versus wildtype,[4],~10 fold
